Measurements as given in patent publication US20240293544A1 (KIROMIC BIOPHARMA, published 2024).

Tests used:
[1] = biological target: T1, Mesothelin Isoform 2 (IsoMSLN), antigen of the ELISA (human, UniProt Q13421 37-598); assay: ELISA
T1 construct: also called MSLN Isoform 2; mesothelin isoform-2 polypeptide

[2] = biological target: T2, Mesothelin (MSLN) Isoform 1, antigen of the ELISA (human, UniProt Q13421 296-598, limits assumed); assay: ELISA
T2 construct: also called Mesothelin canonical polypeptide
T2 sequence (Q13421 other isoform, or with tags, fused parts or gaps limits assumed): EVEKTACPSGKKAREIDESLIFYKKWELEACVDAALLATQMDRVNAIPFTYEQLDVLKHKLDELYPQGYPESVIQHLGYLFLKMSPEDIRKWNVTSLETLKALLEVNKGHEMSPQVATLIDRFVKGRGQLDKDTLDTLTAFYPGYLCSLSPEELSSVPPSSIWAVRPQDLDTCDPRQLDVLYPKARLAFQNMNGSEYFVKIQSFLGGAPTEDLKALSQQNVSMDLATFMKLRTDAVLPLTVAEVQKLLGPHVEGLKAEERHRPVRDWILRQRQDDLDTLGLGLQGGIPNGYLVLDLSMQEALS

T1 sequence (Q13421 37-606 limits assumed, form in doubt): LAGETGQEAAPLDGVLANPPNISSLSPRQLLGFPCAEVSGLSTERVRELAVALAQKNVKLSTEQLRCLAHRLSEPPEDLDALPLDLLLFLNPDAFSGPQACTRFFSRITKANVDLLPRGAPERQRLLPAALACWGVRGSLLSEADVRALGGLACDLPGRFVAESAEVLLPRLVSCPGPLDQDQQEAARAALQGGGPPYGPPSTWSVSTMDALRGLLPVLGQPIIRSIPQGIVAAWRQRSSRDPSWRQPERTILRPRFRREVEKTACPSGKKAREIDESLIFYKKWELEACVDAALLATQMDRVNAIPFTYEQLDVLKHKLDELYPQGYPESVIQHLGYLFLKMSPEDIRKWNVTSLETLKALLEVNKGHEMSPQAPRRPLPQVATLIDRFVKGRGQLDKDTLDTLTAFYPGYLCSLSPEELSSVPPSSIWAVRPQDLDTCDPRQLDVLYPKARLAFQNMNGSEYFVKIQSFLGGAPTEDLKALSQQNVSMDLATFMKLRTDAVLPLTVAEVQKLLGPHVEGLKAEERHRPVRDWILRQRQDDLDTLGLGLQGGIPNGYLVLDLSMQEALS

EC50 [1]: 0.073 mg/L
binding result [2]: no binding
B1: 1B6 monoclonal antibody (Binding Molecule A) (antibody, V domains shown)
VH: EVKLVESGGGLVKPGGSLKLSCEASGFTFSRYAMSWVRHTPEKRLAWVASITFGGDPYYPDGLKGRFTISRDNTRNILYLQMNSLRSEDTAMYYCVRHESWFAYWGQGTLVTVSA
VL: DVLMTQTPLSLPVSLGEQVSISCRSSQTIVHTDGNIYLEWYLQNPGQSPRLLIYKISNRFSGVPDRFSGSGSGTDFTLKISRVEAEDLGIYYCFQASHVPYTFGGGTKLEIK
notes: also called 1B6 antibody; 1B6 mAb
